Experimental findings from PMC8613972 are described below.

The target in one test is Naja mossambica venom. The test can be described thus: biolayer interferometry (wavelength shift, AUC of association curve). Conditions: 120-s association phase; n=3; parent: est. 29; read off a plot. (In general: In BLI a coated tip is dipped into the sample, and binding shifts an interference pattern.)
A further test has as its target Naja siamensis venom. The test is described as above. Conditions: 120-s association phase; n=3; parent: est. 23; read off a plot.

Turning to “Homininae α-1 nAChR orthosteric site (loop C) mimotope, native S187W”, the response in the test with Naja mossambica venom stood at 20 AUC; with Naja siamensis venom, 16 AUC.
Consider “Homininae α-1 nAChR orthosteric site (loop C) mimotope, native S187W; S191A”, for which the response with Naja mossambica venom came out at 38 AUC; with Naja siamensis venom, 28 AUC.
The corresponding values for “Homininae α-1 nAChR orthosteric site (loop C) mimotope, native S187W; T189F” are 88 AUC and 50 AUC.
The corresponding values for “Homininae α-1 nAChR orthosteric site (loop C) mimotope, native S187W; T189F; S191A” are 76 AUC and 53 AUC.
The corresponding values for “Homininae α-1 nAChR orthosteric site (loop C) mimotope, native S191A” are 35 AUC and 28 AUC.
For the substance “Homininae α-1 nAChR orthosteric site (loop C) mimotope, native T189F”, the results for the response with Naja mossambica venom and in the test with Naja siamensis venom were 46 AUC and 32 AUC, respectively.
“Homininae α-1 nAChR orthosteric site (loop C) mimotope, native T189F; S191A”: the values for the response with Naja mossambica venom and in the test with Naja siamensis venom were 47 AUC and 31 AUC, respectively.
